Where no end group is shown, it is not given here.
What was measured:
Format in all cases: cell-based, Escherichia coli
[1] = system: E. coli DH5α cells; test: Inhibition of bacterial cell growth by CPPs (Max OD600 relative to control); conditions: for Max OD (%) (Figure 3f): E. coli DH5α diluted 1/1000 in LB, 5 μg TAMRA-CPP (0.1 μg/μL), OD600 monitored 18 h, max OD of treated cells / max OD of control cells; for Growth rate (%): E. coli growth with CPP, relative to control; for Anti-bacterial activity: class (Cytotoxic / Safe), cutoff of 50%; for Max OD (%): library CPPs, E. coli growth to stationary phase, relative to non-CPP-treated control, mean of n = 3
Experimental: E. coli DH5α cells were grown until OD600 = 1 at 37 °C with shaking at 200 rpm. […] Then, cell growth (OD600) was monitored for 18 h by using the Synergy^TM H1 hybrid multi-mode microplate reader (BioTek, Vermont, USA). As a control, we used E. coli cells that were not treated with CPPs.

[2] = system: E. coli DH5α cells; test: Penetration efficiency of TAMRA-labeled CPPs, electroporation-based method, flow cytometry; conditions: library CPPs, E. coli, electroporation, Tris buffer pH 7.5, 1 h, mean of n = 3–5
From the text: (§1) (Fig. 2a). […] First, we prepared electrocompetent and chemically competent cells.

[3] = system: E. coli DH5α cells; test: Penetration efficiency of TAMRA-labeled CPPs, chemical (CaCl2) treatment method, flow cytometry; conditions: TAMRA fluorescence intensity in E. coli, library screen of 98 CPPs
From the text: as §1

Substance	Max OD (%) (Figure 3f) ([1]; replicate 1)	Max OD (%) (Figure 3f) ([1]; replicate 2)	Max OD (%) (Figure 3f) ([1]; replicate 3)	Growth rate (%) [1]	Anti-bacterial activity [1]	Max OD (%) [1]	Penetration efficiency (TAMRA fluorescence in E. coli) [2]	Penetration efficiency (TAMRA FI) [3]
Tat49-57 (RKKRRQRRR; also: TAMRA label, site not given here) [CPP 45, TAMRA-labeled CPP of the 98-CPP library]	75.4515%	62.3077%	70.8361%	69.5318%	Safe	69.5%	2837.5 A.U.	
Tat (GRKKRRQRRRPPQRKC; also: TAMRA label, site not given here) [CPP 67, TAMRA-labeled CPP of the 98-CPP library]	60.9603%	54.071%	61.2735%	58.7683%	Safe	58.8%	2821.8 A.U.	
TatsMTS (TMG) (GRKKRRQRRRMVSAL; also: TAMRA label, site not given here) [CPP 71, TAMRA-labeled CPP of the 98-CPP library]	73.904%	87.9958%	80.3758%	80.7585%	Safe	80.8%	3266.3 A.U.	
rrrrrrrrrcqcrrkn [CPP 80]	65.3033%	60%	55.5286%	60.2773%	Safe			1432.29
